# Source: PMC12921616, “Flower-like Silver Bismuth Sulfide/Carbon Nanosphere Nanocomposite for Sensitive Electrochemical Tumor Marker Sensing”
# Target: Carcinoembryonic antigen (CEA) (UniProt P06731 35-685)
# Assay: electrochemical aptasensor (CV, DPV); immobilized aptamer; current falls with CEA; LOD 7.6 ng/mL (not a Kd); 0.05 M PBS pH 7.0, 0.1 M KCl, 5 mM [Fe(CN)6]3-/4-; temperature not stated
# Sequence of Carcinoembryonic antigen (CEA) (P06731 35-685): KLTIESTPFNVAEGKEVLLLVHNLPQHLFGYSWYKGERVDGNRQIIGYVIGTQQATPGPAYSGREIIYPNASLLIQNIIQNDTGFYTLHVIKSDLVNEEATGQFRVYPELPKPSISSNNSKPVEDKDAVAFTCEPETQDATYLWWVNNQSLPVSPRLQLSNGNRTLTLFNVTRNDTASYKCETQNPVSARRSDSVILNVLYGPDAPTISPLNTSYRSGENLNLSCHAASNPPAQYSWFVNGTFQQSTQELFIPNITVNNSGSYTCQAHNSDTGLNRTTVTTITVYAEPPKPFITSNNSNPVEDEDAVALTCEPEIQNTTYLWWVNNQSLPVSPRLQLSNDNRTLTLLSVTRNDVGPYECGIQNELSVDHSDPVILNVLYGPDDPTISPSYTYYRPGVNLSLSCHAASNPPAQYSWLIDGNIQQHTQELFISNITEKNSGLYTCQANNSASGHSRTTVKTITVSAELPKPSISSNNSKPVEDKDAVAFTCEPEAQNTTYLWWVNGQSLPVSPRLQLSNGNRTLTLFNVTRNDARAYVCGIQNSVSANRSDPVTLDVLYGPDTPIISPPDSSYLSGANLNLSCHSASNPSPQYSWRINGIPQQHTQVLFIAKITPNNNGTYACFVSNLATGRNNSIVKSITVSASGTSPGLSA
binder,measurement,value
"CEA aptamer (ssDNA, 5'-NH2) DNA: GTGACGCTCCTAACGCTGACTCAGGTGCAGTTCTCGACTCGGTCTTGATGTGGGTCCTGTCCGTCCGAACCAATC",binding result,binds
